This is an account of results in patent US20020142457A1, “Cell having the potentiality of differentiation into cardiomyocytes” (priority 1999, published 2002).

Ends that are not written are not given here.

Test [1] has as its system Nkx2.5/Csx and GATA4 co-forced expressing bone marrow cells (BMSC-Nkx2.5-GATA4). Nature of the test: Differentiation of BMSC-Nkx2.5-GATA4 with cytokines, phase-contrast microscope. The format is cell-based, mouse. The following applies: cytokine 10 ng/ml, four weeks; for cells differentiated into myotubes: BMSC-Nkx2.5-GATA4, 5-aza-C 3 μM in all dishes; for beating cardiomyocytes: BMSC-Nkx2.5-GATA4, 5-aza-C 3 μM. As for the experimental part:
The Nkx2.5/Csx and GATA4 co-forced expressing bone marrow cells (BMSC-Nkx2.5-GATA4) having the potential to differentiate into cardiomyocytes were plated into a 60-mm culture dish at a density of 2×10^4 cells/ml and cultured at 33° C. in a 5% CO2-incubator.
On the next day, 5-aza-C was added to the culture medium to give a final concentration of 3 μM. Furthermore, 5 treatments differing from each other were carried out by adding FGF-8 to give a final concentration of 10 ng/ml (culture dish I); adding ET-1 to give a final concentration of 10 ng/ml (culture dish J); adding midkine to give a final concentration of 10 ng/ml (culture dish K); adding BMP4 to give a final concentration of 10 ng/ml (culture dish L); and adding nothing (culture dish M), followed by culturing.
On the next day, the medium was replaced with a fresh medium to eliminate 5-aza-C. Then, FGF-8 was added to the culture dish I to give a final concentration of 10 ng/ml; ET-1 was added to the culture dish J to give a final concentration of 10 ng/ml; midkine was added to the culture dish K to give a final concentration of 10 ng/ml; and BMP4 was added to the culture dish L to give a final concentration of 10 ng/ml, followed by culturing. Two and four days thereafter, furthermore, the medium was replaced, and the FGF-8, ET-1, midkine or BMP4 was added.
As a result, about 30% of the cells in the culture dish containing 5-aza-C alone were converted into myotubes, while about 50% of the cells in the culture dishes containing FGF-8, ET-1, midkine or BMP4 differentiated into myotubes respectively. On the other hand, the addition of FGF-8, ET-1, midkine or BMP4 caused no increase in beating cardiomyocytes.

Test [2] concerns mouse bone marrow-derived pluripotent stem cells (BMSC). Nature of the test: Differentiation of BMSC into myotubes, phase-contrast microscope. The format is cell-based. The note with it: 5-aza-C 3 μM in all dishes, cytokine 10 ng/ml, four weeks after addition of 5-aza-C. The method, then: The mouse bone marrow-derived pluripotent stem cells (BMSC) having the potential to differentiate into cardiomyocytes were plated into 60-mm culture dishes and 60 mm fibronectin-coated dishes (Becton Dickinson) at a density of 2×10^4 cells/ml and cultured at 33° C. in a 5% CO2-incubator.
On the next day, 5-aza-C was added to each culture medium in a final concentration of 3 μM, followed by culturing with the following 3 different treatments, with addition of PDGF (culture dish A), both PDGF and retinoic acid (culture dish B) or without addition of any compound (culture dish C) (final concentration: PDGF, 10 ng/ml; retinoic acid, 10^−9 M).
On the next day, the medium was replaced with a fresh medium to remove 5-aza-C therefrom. Then, PDGF was added to the culture dish A until the final concentration of PDGF came to be 10 ng/ml, while PDGF and retinoic acid were added to the culture dish B until the final concentrations of PDGF and retinoic acid came to be 10 ng/ml and 10^−9 M, respectively. Two and four days thereafter, the medium was replaced and the PDGF or retinoic acid was further added.
As a result, about 30% of the cells in the culture dish containing 5-aza-C alone differentiated into myotubes, while about 40% of the cells in the culture dish containing PDGF and about 50% of the cells in the culture dish containing PDGF together with retinoic acid differentiated into myotubes. In the three groups of the fibronectin-coated dishes, the ratio of the cells differentiated into myotubes was about 10% higher than in the three groups of the culture dishes.
RNAs were collected from the myotubes thus obtained. And genes expressed in the myotubes were analyzed with quantitative PCR analysis using the synthetic oligonucleotides represented by SEQ ID NOS:71 to 78. As a result, PDGF or retinoic acid promoted the expression of MyoD and fTnI genes relating to a skeletal muscle but not cTnI or ANP specifically relating to a myocardium. Next, mouse bone marrow-derived pluripotent stem cells (BMSC) having the potential to differentiate into cardiomyocytes were inoculated in a 60-mm culture dish at a density of 2×10^4 cells/ml and cultured using an incubator at 33° C. under 5% of CO2.
On the next day, 5-aza-C was added to the liquid culture medium to give a final concentration of 3 μM. Furthermore, five treatments differing from each other were performed by adding FGF-8 to give a final concentration of 10 ng/ml (culture dish D); adding ET-1 to give a final concentration of 10 ng/ml (culture dish E); adding a midkine to give a final concentration of 10 ng/ml (Culture dish F); adding BMP4 to give a final concentration of 10 ng/ml (culture dish G); and adding no compound (culture dish H), followed by culturing.
On the next day, the medium was replaced by a fresh medium to eliminate 5-aza-C therefrom. Then, FGF-8 was added to the culture dish D to give a final concentration of 10 ng/ml; ET-1 was added to the culture dish E to give a final concentration of 10 ng/ml; the midkine was added to the culture dish F to give a final concentration of 10 ng/ml; and BMP4 was added to the culture dish G to give a final concentration of 10 ng/ml, followed by culturing. Two and four days thereafter, the medium was replaced and the FGF-8, ET-1, midkine or BMP4 was further added.
As a result, about 30% of the cells in the culture dish containing 5-aza-C alone differentiated into myotubes, while about 50% of the cells in the culture dishes containing FGF-8, ET-1, midkine or BMP4 differentiated into myotubes respectively.

Turning to “ET-1: endothelin 1, cytokine (CSCSSLMDKECVYFCHLDIIW; ends and bridges not checked; cysteine pairing not given here; UniProt P05305 53-73, looked up)”, in test [1], the “cells differentiated into myotubes” value is recorded as “about 50%” and the beating cardiomyocytes entry is on record as “no increase”. Besides, the “cells differentiated into myotubes” value in test [2] is “about 50%”.

B1: BMP4: bone morphogenic protein 4, cytokine (protein, UniProt P12644 293-408, looked up)
Bone morphogenetic protein 4: SPKHHSQRARKKNKNCRRHSLYVDFSDVGWNDWIVAPPGYQAFYCHGDCPFPLADHLNSTNHAIVQTLVNSVNSSIPKACCVPTELSAISMLYLDEYDKVVLKNYQEMVVEGCGCR
As to B1, the “cells differentiated into myotubes” value in test [1] and in test [2] was “about 50%” in each case. Also, the beating cardiomyocytes entry in test [1] is recorded as “no increase”.

B2: midkine: cytokine, amino acid sequence SEQ ID NO:68 (protein, listed as Homo sapiens)
chain: MQHRGFLLLTLLALLALTSAVAKKKDKVKKGGPGSECAEWAWGPCTPSSKDCGVGFREGTCGAQTQRIRCRVPCNWKKEFGADCKYKFENWGACDGGTGTKVRQGTLKKARYNAQCQETIRVTKPCTPKTKAKAKAKKGKGKD
modifications: CDS (1)..(432)
On to B2, for which the “cells differentiated into myotubes” value in test [1] and in test [2] was “about 50%” each time. The beating cardiomyocytes entry in test [1] is reported as “no increase”.

B3: FGF-8: fibroblast growth factor 8, cytokine (protein, UniProt P55075 23-233, looked up)
Fibroblast growth factor 8: QEGPGRGPALGRELASLFRAGREPQGVSQQHVREQSLVTDQLSRRLIRTYQLYSRTSGKHVQVLANKRINAMAEDGDPFAKLIVETDTFGSRVRVRGAETGLYICMNKKGKLIAKSNGKGKDCVFTEIVLENNYTALQNAKYEGWYMAFTRKGRPRKGSKTRQHQREVHFMKRLPRGHHTTEQSLRFEFLNYPPFTRSLRGSQRTWAPEPR
For B3, in test [1], the “cells differentiated into myotubes” value is listed as “about 50%” and the beating cardiomyocytes result is listed as “no increase”. Also, in test [2], the “cells differentiated into myotubes” value is on record as “about 50%”.
